This note sets out measurements from article doi:10.1101/2021.11.09.467869 (bioRxiv, 2021).

This series deals with the molecule itself. As to the kind of experiment: SEC + other: negative-staining EM.

B1: L6 TIR domain (L6^TIR), residues 26-231 (domain or fragment, UniProt Q40253 26-231, looked up)
chain: PNSKDSIVNDDDDSTSEVDAISDSTNPSGSFPSVEYEVFLSFRGPDTREQFTDFLYQSLRRYKIHTFRDDDELLKGKEIGPNLLRAIDQSKIYVPIISSGYADSKWCLMELAEIVRRQEEDPRRIILPIFYMVDPSDVRHQTGCYKKAFRKHANKFDGQTIQNWKDALKKVGDLKGWHIGKNDKQGAIADKVSADIWSHISKENLI
Take B1: the binding result is given as “binds”.
